The text below walks through data of publication doi:10.1101/2022.08.14.503891 (bioRxiv, 2022).

The target of one assay is mɑAXL (mouse). The experiment in a line: SPR. (In general: In SPR one partner is held on a chip, and binding of the other changes the refractive index at the surface.)
Assay [1] has as its target biotinylated lysozyme (GeneTex) (Gallus gallus (hen egg white), UniProt P00698, biotin). Description: flow cytometry on cells.
Assay [2] concerns the target hen-egg white lysozyme (Sigma) (Gallus gallus (hen egg white), UniProt P00698). The experiment in a line: SPR.
Assay [3] has as its target human Quiescin Sulfhydryl Oxidase 1 (residues 34–546 of HsQSOX1) (human, UniProt O00391). The experiment in a line: enzyme inhibition.

“And” between values parts separate entries of the source, which are not always exact repeats. Equal values may be shown once.

hen-egg white lysozyme (Sigma), sequence (P00698 19-147): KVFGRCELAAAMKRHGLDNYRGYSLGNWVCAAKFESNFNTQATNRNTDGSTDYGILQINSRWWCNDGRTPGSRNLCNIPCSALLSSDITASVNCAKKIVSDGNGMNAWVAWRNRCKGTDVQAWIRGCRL
human Quiescin Sulfhydryl Oxidase 1 (residues 34–546 of HsQSOX1), sequence (O00391 34-546): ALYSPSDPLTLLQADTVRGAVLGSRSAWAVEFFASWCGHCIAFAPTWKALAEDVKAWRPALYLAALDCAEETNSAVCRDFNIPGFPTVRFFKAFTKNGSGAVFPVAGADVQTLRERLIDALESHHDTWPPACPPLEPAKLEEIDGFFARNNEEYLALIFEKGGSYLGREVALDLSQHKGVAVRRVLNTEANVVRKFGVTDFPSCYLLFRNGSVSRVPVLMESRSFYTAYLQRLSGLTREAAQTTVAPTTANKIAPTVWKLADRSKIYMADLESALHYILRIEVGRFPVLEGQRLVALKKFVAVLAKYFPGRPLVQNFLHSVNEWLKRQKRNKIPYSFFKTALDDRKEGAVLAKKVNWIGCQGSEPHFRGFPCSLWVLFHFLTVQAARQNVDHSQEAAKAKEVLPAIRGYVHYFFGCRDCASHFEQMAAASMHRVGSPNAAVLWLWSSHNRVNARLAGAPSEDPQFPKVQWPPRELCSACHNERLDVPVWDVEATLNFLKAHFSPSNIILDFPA
biotinylated lysozyme (GeneTex), sequence (P00698 19-147): as the sequence (P00698 19-147) above

As to “AXL (R&D systems) (from UniProt P30530) (receptor)”, in the assay with mɑAXL (mouse), the Kd (commonly the free concentration of one partner at which half of the binding sites on the other are occupied at equilibrium, for simple one-to-one binding) was 0.95 nM; the koff (in general, a measure of how fast the partners let go of each other) was found to be 0.000524 s⁻¹; the kon (in general, the rate constant with which the complex forms) was determined as 550000 M⁻¹ s⁻¹.

B1: CUMAb design 6 of D44.1 formatted as scFv (scFv, V domains shown)
VH: EVQLVQSGAEVKKPGATVKISCKVSGYTFSTYWMEWVQQAPGKGLEWMGEVLPGSGSTYYAEKFQGRVTITADTSTDTAYMELSSLRSEDTAVYYCARGDGYFQHWGQGTLVTVSS
VL: EIVLTQSPDFQSVTPKEKVTITCRASQSISSNLHWYQQKPDQSPKLLIKYASQSFSGVPSRFSGSGSGTDFTLTINSLEAEDAATYYCHQSNSWPRTFGPGTKVDIK
Regarding B1, the binding result in assay [1] is “binds”.

B2: hɑHEWL Fab (design 1 as a human IgG1 Fab) (Fab, V domains shown)
VH: B1 VH
VL: DIQMTQSPSSLSASVGDRVTITCRASQSISSNLNWYQQKPGKAPKLLIYYASSLQSGVPSRFSGSGSGTDFTLTISSLQPEDFATYYCQQSNSWPRTFGPGTKVDIK
Take B2: in assay [2], the Kd was 42 nM and 44 nM; the koff turned out to be 0.16 s⁻¹; the kon is 3.9e+06 M⁻¹ s⁻¹.

B3: murine monoclonal antibody mAb492.1 (antibody, V domains shown)
VH: QVQLKQSGPGLVAPSQSLSITCTVSGFSLTGYGVNWVRQSPGKGLEWLGMIWGDGRTDYKSALKSRLSITKDNSKSQVFLKMNSLQTDDTARYFCASDYYGSGSFAYWGQGTLVTVSA
VL: DVVMTQSHKFMSTSVGDRVSITCKASQDVSTAVAWYQQKSGQSPKLLIHSASYRYTGVPDRFTGSGSGTDFTFTISSVQAEDLAVYYCQQHYSIPLTFGAGTKLELK
Consider B3, for which the binding result in assay [3] is “binds”.
